The values that follow are results of earlier work, collected in paper PMC4070987.

pKd: −log10 of the molar value.

Broadly, the pKd is the Kd on a negative log10 scale, so that one unit is a factor of ten.

For this series, the target named is alkaline protease inhibitor (Pseudomonas aeruginosa) (UniProt Q03026).
UniProt Q03026, sequence (Q03026 27-131): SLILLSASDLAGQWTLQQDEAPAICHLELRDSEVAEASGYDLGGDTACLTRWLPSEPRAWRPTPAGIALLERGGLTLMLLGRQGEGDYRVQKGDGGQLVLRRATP

In the case of “alkaline protease (AP) (from UniProt Q03023)”, the pKd was 11.40.
